Data reported in patent publication US20210054355A1 (NEW YORK UNIVERSITY, published 2021).

Experiments:
[1] = target: T1, FGFR1c^ecto (human FGFR1c ligand-binding domain, D2, D3 and D2-D3 linker) (human, UniProt P11362 142-365); assay: crystal structure of the ternary complex, 3.0 Å
T1 sequence: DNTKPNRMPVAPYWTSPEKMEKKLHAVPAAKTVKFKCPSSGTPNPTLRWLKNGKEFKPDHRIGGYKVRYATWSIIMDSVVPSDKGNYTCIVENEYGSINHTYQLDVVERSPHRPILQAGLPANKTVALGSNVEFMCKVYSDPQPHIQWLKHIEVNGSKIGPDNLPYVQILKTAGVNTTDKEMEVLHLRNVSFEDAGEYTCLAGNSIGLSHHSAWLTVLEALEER
Method: To prepare the FGF23-FGFR1c^ecto-αKlotho^ecto complex, its purified components were mixed at a molar ratio of 1.2:1.2:1 and spin-concentrated using an Amicon Ultra-15 concentrator (#UFC901024, Merck Millipore, Germany). The concentrated sample was applied to a Superdex 200 column (GE Healthcare, USA) and eluted isocratically in 25 mM HEPES pH 7.5 buffer containing 500 mM NaCl and 100 mM (NH₄)₂SO₄. Column peak fractions were analyzed by SDS-PAGE and peak fractions containing the ternary complex were concentrated to 7 mg/ml. Concentrated ternary complex was screened for crystallization by sitting drop vapor diffusion. A range of commercially available crystallization screen kits was used: Protein Complex Suite (#130715), Classics Suite (#130701), Classics II Suite (#130723), and Classics Lite Suite (#130702) from Qiagen, Germany; Crystal Screen (#HR2-110), Crystal Screen 2 (#HR2-112), Crystal Screen Lite (#HR2-128), PEG/Ion Screen (#HR2-126), and PEGRx1 (#HR2-082) from Hampton Research, USA; and PEG Grid Screening Kit (#36436) and Crystallization Cryo Kit (#75403) from Sigma-Aldrich, USA. Drops consisting of 100 nl reservoir solution and 100 nl protein complex solution were equilibrated against 100 μl well volume set up in 96-well plates (Fisher Scientific, USA) using a Mosquito crystallization robot (TTP Labtech, U.K.). […]

[2] = target: T2, Soluble human α-Klotho ectodomain (αKlotho^ecto) (human, UniProt Q9UEF7 34-981); assay: size-exclusion chromatography of the mixture, with Coomassie-stained SDS-PAGE of the eluted peak fractions [left]
T2 construct: also called wild-type αKlotho^ecto; soluble αKlotho
T2 sequence: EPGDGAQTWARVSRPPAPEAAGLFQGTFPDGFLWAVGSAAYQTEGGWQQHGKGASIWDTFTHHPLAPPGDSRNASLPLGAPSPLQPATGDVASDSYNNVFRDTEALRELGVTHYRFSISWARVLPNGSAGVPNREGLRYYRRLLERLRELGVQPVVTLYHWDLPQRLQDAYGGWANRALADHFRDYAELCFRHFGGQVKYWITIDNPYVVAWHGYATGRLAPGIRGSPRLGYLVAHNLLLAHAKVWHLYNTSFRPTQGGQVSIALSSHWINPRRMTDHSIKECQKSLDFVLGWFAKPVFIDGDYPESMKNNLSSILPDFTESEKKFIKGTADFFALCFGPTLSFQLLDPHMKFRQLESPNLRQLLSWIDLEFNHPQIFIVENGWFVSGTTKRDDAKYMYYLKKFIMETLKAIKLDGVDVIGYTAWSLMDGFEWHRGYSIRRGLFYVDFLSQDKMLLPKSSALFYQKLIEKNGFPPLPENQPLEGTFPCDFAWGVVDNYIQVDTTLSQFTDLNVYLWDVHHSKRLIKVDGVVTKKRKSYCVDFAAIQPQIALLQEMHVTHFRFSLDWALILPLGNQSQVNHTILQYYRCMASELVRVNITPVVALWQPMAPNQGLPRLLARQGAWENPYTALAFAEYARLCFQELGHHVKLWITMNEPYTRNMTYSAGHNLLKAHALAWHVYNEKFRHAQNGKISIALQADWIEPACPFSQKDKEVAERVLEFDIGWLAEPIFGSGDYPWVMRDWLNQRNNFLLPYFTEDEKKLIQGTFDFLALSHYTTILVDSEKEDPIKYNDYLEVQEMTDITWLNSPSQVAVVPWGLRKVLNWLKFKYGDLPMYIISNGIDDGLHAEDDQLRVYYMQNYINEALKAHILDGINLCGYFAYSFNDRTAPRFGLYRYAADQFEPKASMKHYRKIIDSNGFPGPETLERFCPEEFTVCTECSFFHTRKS

binding result [1]: binds | binding result [2]: binds
B1: FGF23^WT (human FGF23 Y25 to S205 with R176Q/R179Q, protease-resistant minimal protein) (ligand)
chain: YPNASPLLGSSWGGLIHLYTATARNSYHLQIHKNGHVDGAPHQTIYSALMIRSEDAGFVVITGVMSRRYLCMDFRGNIFGSHYFDPENCRFQHQTLENGYDVYHSPQYHFLVSLGRAKRAFLPGMNPPPYSQFLSRRNEIPLIHFNTPIPRQHTQSAEDDSERDPLNVLKPRARMTPAPAS
notes: also called wild-type FGF23; minimal FGF23
